Results on six molecules are retold here after US20240342207, “MODIFIED NUCLEIC ACID COMPOSITIONS AND ASSOCIATED METHODS FOR TREATMENT OF PHENYLKETONURIA” (BOARD OF REGENTS, THE UNIVERSITY OF TEXAS SYSTEM, published 2024).

Series [1] addresses T1, PAH (phenylalanine hydroxylase), wild type (Homo sapiens, UniProt P00439 P00439:1-452).
T1 sequence: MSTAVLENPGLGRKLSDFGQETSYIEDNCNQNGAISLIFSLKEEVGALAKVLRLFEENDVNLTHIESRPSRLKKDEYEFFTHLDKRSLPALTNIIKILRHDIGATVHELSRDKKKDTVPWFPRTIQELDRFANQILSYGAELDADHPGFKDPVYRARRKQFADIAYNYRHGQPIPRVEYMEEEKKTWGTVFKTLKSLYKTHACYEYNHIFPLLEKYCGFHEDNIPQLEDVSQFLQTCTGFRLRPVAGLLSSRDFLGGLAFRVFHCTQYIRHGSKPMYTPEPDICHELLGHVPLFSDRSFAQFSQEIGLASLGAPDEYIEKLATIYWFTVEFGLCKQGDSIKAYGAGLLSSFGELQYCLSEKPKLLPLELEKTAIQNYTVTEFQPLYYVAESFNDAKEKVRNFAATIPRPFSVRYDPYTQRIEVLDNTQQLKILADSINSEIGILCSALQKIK
Kind of series: affinity similar to full-length HULC. The conditions noted are these: tags: His-tag, pET-DEST42, E. coli BL21-CodonPlus (DE3)-RIPL, cobalt resin.

Series [2] has as its target T1, PAH (phenylalanine hydroxylase), wild …. Kind of series: EMSA; 5 mM MgCl2, 100 mM KCl, 30 C. The conditions noted are these: tags: His-tag, pET-DEST42, E. coli BL21-CodonPlus (DE3)-RIPL, cobalt resin, label: 32P. As to the method:
RNA Electrophoretic Mobility Shift Assay (EMSA). The gel mobility shift assay was performed as previously described (42). Briefly, 500 ng recombinant His-tagged wild-type PAH or mutants were incubated with 0.035 μmol labeled probe in a RNA-protein binding buffer [(50 mM Tris-HCl 7.9, 10% glycerol, 100 mM KCl, 5 mM MgCl₂, 10 mM (3-ME, 0.1% NP40] for 30 min at 30° C. For cold RNA competition, 0.035 μmol radiolabeled RNA probes were first mixed with 7 μmol cold RNA competitors and then subjected to the gel shift assay.

Series [3] shares this target. Kind of series: mutant mimic abolished interaction. The conditions noted are these: tags: His-tag, pET-DEST42, E. coli BL21-CodonPlus (DE3)-RIPL, cobalt resin.

B1: HULC mimic, 2'-F (XNA)
DNA: CAAAATGCATATGTATCTTTG
modifications: 2'-F at all nucleotides
Consider B1, for which the binding result in series [1] is listed as “binds”.

B2: HULC 180-202 WT EMSA probe (ssRNA)
RNA: CCAAAAUGCAUAUGUAUCUUUGG
B2: in series [2] (stem-loop), the binding result was “binds”.

B3: Pair 467-488 mutant EMSA probe (ssRNA)
RNA: GGUGAGCUGCGUGUAGCUCGUC
On to B3, for which the binding result in series [2] is on record as “no binding”.

B4: HULC mutant mimic, 2'-F (A191G) (XNA)
DNA: CAAAATGCATGTGTATCTTTG
modifications: 2'-F at all nucleotides
As for B4, the binding result in series [3] is reported as “no binding”.

B5: HULC 180-202 mutant EMSA probe (ssRNA)
RNA: CCAAAAUGCAUGUGUAUCUUUGG
As to B5, the binding result in series [2] is listed as “no binding”.

B6: Pair 467-488 WT EMSA probe (ssRNA)
RNA: GGUGAGCUGCGUAUAGCUCGUC
On to B6, for which the binding result in series [2] (stem-loop) is “binds”.
